Data reported in the supplement of paper PMC10567573.

B1: GMCL1 (parent)
chain: RPDTGDDAAGHGFCYCAGSHKRKR

Variants of: B1
Test: protein stability index of a GFP-peptide fusion (GPS, HEK-293T) (PSI 1-6); higher = more stable
Conditions: c terminus: a fixed tail appended
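Note: lentivirally expressed fusions sorted by FACS into six bins by GFP to DsRed ratio, PSI derived from sequencing read proportions per bin multiplied by bin number.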

In order of rising protein stability index:
1. RPDTGDDAAGHGFCYCCGSHKRKR  2.05
2. RPDTGDDAAGHGFCYCFGSHKRKR  2.2
3. RPDTGDDAAGHWFCYCAGSHKRKR  2.36
4. RPDTGDDAAGHLFCYCAGSHKRKR  2.38
5. RPDTGDDAAGHGFCNCAGSHKRKR  2.43
6. RPDTGDDAAGHCFCYCAGSHKRKR  2.45
7. RPDTGDDAHGHGFCYCAGSHKRKR  2.48
8. RPDTGDDAAGHGFCKCAGSHKRKR  2.5
9. RPDTGDDAAGHGFCTCAGSHKRKR  2.51
10. RPDTGDDAAGHAFCYCAGSHKRKR  2.52
11. RPDTGDDAAGHGFCFCAGSHKRKR  2.6
12. RPDTGDDAIGHGFCYCAGSHKRKR  2.65
13. RPDTGDDAAGHGFCCCAGSHKRKR  2.68
14. RPDTGDDALGHGFCYCAGSHKRKR  2.71
15. RPDTGDDAAGHYFCYCAGSHKRKR  2.71
16. RPDTGDDAFGHGFCYCAGSHKRKR  2.72
17. RPDTGDDAAGHGFCQCAGSHKRKR  2.74
18. RPDTGDDAAGHGFCSCAGSHKRKR  2.77
19. RPDTGDDAAGHGFCECAGSHKRKR  2.77
20. RPDTGDDAAGHMFCYCAGSHKRKR  2.79
21. RPDTGDDAAGHGFCVCAGSHKRKR  2.8
22. RPDTGDDAAGHGFCWCAGSHKRKR  2.82
23. RPDTGDDAAGHGFCLCAGSHKRKR  2.84
24. RPDTGDDAAGHSFCYCAGSHKRKR  2.88
25. RPDTGDDAAGHGFCMCAGSHKRKR  2.89
26. RPDTGDDAAGHGFCYCGGSHKRKR  2.9
27. RPDTGDDAAGHEFCYCAGSHKRKR  2.9
28. RPDTGDDAWGHGFCYCAGSHKRKR  2.96
29. RPDTGDDAVGHGFCYCAGSHKRKR  2.96
30. RPDTGDDAAGHGFCHCAGSHKRKR  2.98
31. RPDTGDDAAGHFFCYCAGSHKRKR  3.02
32. RPDTGDDAAGHIFCYCAGSHKRKR  3.02
33. RPDTGDDAYGHGFCYCAGSHKRKR  3.05
34. RPDTGDDAEGHGFCYCAGSHKRKR  3.05
35. RPDTGDDAAGHHFCYCAGSHKRKR  3.05
36. RPDTGDDAQGHGFCYCAGSHKRKR  3.06
37. RPDTGDDAAGHGFCICAGSHKRKR  3.09
38. RPDTGDDAAGHPFCYCAGSHKRKR  3.1
39. RPDTGDDAAGHRFCYCAGSHKRKR  3.11
40. RPDTGDDAAGHGFCACAGSHKRKR  3.12
41. RPDTGDDAAGHNFCYCAGSHKRKR  3.14
42. RPDTGDDAAGHDFCYCAGSHKRKR  3.14
43. RPDTGDDAAGHQFCYCAGSHKRKR  3.16
44. RPDTGDDAAGHKFCYCAGSHKRKR  3.21
45. RPDTGDDAAGHGFCGCAGSHKRKR  3.35
46. RPDTGDDAAGHGFCDCAGSHKRKR  3.36
47. RPDTGDDAAGHGFCPCAGSHKRKR  3.36
48. RPDTGDDAAGHGFCRCAGSHKRKR  3.41
49. RPDTGDDAGGHGFCYCAGSHKRKR  3.43
50. RPDTGDDATGHGFCYCAGSHKRKR  3.55
51. RPDTGDDAAGHGFCYCEGSHKRKR  3.61
52. RPDTGDDAAGHTFCYCAGSHKRKR  3.62
53. RPDTGDDAAGHGFLYCAGSHKRKR  3.66
54. RPDTGDDAAGHGFCYCDGSHKRKR  3.68
55. RPDTGDDAAGHVFCYCAGSHKRKR  3.73
56. RPDTGDDADGHGFCYCAGSHKRKR  3.81
57. RPDTGDDAAGHGFWYCAGSHKRKR  3.82
58. RPDTGDDAAGHGFCYHAGSHKRKR  3.87
59. RPDTGDDAAGHGFFYCAGSHKRKR  3.88
60. RPDTGDDACGHGFCYCAGSHKRKR  3.89
61. RPDTGDDAAGHGFCYYAGSHKRKR  4.09
62. RPDTGDDAAGHGFCYLAGSHKRKR  4.11
63. RPDTGDDAAGHGFCYMAGSHKRKR  4.17
64. RPDTGDDAAGHGFIYCAGSHKRKR  4.3
65. RPDTGDDAAGHGFVYCAGSHKRKR  4.3
66. RPDTGDDAAGHGFPYCAGSHKRKR  4.31
67. RPDTGDDAAGHGFCYWAGSHKRKR  4.36
68. RPDTGDDAAGHGFCYNAGSHKRKR  4.56
69. RPDTGDDAAGHGFCYIAGSHKRKR  4.57
70. RPDTGDDAAGHGFCYRAGSHKRKR  4.59
71. RPDTGDDAAGHGFNYCAGSHKRKR  4.62
72. RPDTGDDAAGHGFHYCAGSHKRKR  4.7
73. RPDTGDDAAGHGFQYCAGSHKRKR  4.7
74. RPDTGDDAAGHGFCYPAGSHKRKR  4.71
75. RPDTGDDAAGHGFCYFAGSHKRKR  4.72
76. RPDTGDDAAGHGFCYVAGSHKRKR  4.72
77. RPDTGDDAAGHGFAYCAGSHKRKR  4.73
78. RPDTGDDAAGHGFCYTAGSHKRKR  4.74
79. RPDTGDDAAGHGFDYCAGSHKRKR  4.75
80. RPDTGDDAAGHGFCYKAGSHKRKR  4.81
81. RPDTGDDAAGHGFCYGAGSHKRKR  4.85
82. RPDTGDDAAGHGFGYCAGSHKRKR  4.85
83. RPDTGDDAAGHGFRYCAGSHKRKR  4.87
84. RPDTGDDAAGHGFYYCAGSHKRKR  4.88
85. RPDTGDDAAGHGFTYCAGSHKRKR  4.89
86. RPDTGDDAAGHGFMYCAGSHKRKR  4.9
87. RPDTGDDAAGHGFCYQAGSHKRKR  4.92
88. RPDTGDDAAGHGFCYAAGSHKRKR  4.94
89. RPDTGDDAAGHGFCYSAGSHKRKR  4.97
90. RPDTGDDAAGHGFKYCAGSHKRKR  4.98
91. RPDTGDDAAGHGFEYCAGSHKRKR  4.99
92. RPDTGDDAAGHGFSYCAGSHKRKR  5.02
93. RPDTGDDAAGHGFCYDAGSHKRKR  5.04
94. RPDTGDDAAGHGFCYEAGSHKRKR  5.33
